No end group written: not given here.
Key:
Test in all cases: Ki, residual activity
hCPA1 = target: T1, hCPA1 (Homo sapiens (Human), UniProt P15085)
T1 chain: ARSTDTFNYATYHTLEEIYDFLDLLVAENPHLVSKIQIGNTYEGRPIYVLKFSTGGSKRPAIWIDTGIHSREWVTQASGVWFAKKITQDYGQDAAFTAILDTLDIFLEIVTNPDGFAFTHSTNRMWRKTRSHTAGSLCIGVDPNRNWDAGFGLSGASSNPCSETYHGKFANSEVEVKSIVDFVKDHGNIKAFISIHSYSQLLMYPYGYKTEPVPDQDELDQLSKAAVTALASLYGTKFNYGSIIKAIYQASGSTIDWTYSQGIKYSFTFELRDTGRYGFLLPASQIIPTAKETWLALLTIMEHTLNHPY

hCPD = target: T2, hCPD (Homo sapiens (Human), UniProt O75976)
T2 chain: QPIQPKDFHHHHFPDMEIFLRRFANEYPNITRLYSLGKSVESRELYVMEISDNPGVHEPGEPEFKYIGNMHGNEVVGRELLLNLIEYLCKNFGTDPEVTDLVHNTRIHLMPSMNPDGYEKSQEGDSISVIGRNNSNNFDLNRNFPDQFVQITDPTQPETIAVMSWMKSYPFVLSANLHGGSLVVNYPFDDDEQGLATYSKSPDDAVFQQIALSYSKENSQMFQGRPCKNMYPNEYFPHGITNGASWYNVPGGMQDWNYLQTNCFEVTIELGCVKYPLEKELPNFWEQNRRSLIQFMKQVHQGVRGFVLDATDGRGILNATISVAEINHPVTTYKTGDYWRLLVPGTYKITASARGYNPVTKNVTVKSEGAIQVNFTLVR

hCPB = target: T3, hCPB (Homo sapiens (Human), UniProt P15086)
T3 chain: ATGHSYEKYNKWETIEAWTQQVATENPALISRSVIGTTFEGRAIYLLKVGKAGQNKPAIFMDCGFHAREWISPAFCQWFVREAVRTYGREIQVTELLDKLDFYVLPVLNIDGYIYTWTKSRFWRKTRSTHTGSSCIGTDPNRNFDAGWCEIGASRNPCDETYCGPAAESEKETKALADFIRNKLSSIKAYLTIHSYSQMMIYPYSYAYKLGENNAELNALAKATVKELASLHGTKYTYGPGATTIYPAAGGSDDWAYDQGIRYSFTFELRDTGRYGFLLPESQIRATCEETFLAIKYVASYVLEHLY

bTAFI = target: T4, bTAFI (Bos taurus (Bovine), UniProt Q2KIG3)
T4 chain: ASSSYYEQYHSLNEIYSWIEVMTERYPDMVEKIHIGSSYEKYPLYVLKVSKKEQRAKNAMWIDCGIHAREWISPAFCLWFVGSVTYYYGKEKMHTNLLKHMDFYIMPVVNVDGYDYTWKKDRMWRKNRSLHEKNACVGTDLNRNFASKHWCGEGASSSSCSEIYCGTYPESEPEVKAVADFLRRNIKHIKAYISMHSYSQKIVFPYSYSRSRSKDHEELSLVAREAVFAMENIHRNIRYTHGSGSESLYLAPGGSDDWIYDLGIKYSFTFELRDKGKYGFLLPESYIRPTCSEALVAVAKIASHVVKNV

hCPA2 = target: T5, hCPA2 (Homo sapiens (Human), UniProt P48052)
T5 chain: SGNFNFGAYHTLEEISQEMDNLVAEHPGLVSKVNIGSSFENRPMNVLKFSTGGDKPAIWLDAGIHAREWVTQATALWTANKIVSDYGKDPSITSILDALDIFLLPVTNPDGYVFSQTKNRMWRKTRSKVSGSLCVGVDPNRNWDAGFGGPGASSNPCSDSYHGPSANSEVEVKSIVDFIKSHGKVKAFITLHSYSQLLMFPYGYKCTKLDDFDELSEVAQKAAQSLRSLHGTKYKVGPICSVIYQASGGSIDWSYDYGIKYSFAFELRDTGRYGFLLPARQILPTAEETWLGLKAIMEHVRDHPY

pCPB = target: T6, pCPB (Sus scrofa (Pig), UniProt P09955)
T6 chain: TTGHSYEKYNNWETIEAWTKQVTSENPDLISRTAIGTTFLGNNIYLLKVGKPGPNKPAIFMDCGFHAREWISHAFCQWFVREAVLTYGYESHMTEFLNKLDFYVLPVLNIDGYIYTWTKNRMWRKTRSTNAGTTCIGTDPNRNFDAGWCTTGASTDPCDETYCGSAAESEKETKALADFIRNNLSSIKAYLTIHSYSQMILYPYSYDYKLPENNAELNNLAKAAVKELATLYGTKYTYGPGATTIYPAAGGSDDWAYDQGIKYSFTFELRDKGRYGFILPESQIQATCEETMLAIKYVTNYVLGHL

hTAFI = target: T7, hTAFI (Homo sapiens (Human), UniProt Q96IY4)
T7 chain: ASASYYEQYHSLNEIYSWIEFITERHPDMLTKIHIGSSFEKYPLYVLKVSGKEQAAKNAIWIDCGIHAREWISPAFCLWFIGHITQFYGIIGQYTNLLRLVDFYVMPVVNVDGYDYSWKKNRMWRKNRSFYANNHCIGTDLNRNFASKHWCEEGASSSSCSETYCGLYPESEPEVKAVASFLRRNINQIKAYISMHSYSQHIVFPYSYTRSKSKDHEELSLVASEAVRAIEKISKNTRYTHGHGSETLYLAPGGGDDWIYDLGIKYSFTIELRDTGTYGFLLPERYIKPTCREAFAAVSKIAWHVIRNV

hCPA4 = target: T8, hCPA4 (Homo sapiens (Human), UniProt Q9UI42)
T8 chain: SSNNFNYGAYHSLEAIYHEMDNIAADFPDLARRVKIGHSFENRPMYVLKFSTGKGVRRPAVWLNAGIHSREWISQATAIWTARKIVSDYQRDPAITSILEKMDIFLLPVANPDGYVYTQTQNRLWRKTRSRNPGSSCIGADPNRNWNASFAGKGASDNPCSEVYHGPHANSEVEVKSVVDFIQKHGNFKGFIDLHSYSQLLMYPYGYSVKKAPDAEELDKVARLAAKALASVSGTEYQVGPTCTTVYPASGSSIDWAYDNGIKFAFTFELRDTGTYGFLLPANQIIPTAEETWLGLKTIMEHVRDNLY

B1: NvCI (protein)
chain: FHVPDDRPCINPGRCPLVPDATCTFVCKAADNDFGYECQHVWTFEGQRVGCYA
modifications: disulfide (positions not given here); not fully specified (bridges); ends not checked
- Kd (hCPA1): 1.2 pM
- Kd (hCPD): > 1000 nM
- Kd (hCPB): 0.549 nM
- Kd (bTAFI): 0.0841 nM
- Kd (hCPA2): 2.94 nM
- Kd (pCPB): 0.335 nM
- Kd (hTAFI): 0.951 nM
- Kd (hCPA4): 4.9 pM
